Values belong to the molecule of their own block, whether it stands above or below them.
B4: Phospholipase C-γ1 (PLC-γ1), 1–1219 (enzyme, UniProt P19174 1-1219, looked up)
chain: MAGAASPCANGCGPGAPSDAEVLHLCRSLEVGTVMTLFYSKKSQRPERKTFQVKLETRQITWSRGADKIEGAIDIREIKEIRPGKTSRDFDRYQEDPAFRPDQSHCFVILYGMEFRLKTLSLQATSEDEVNMWIKGLTWLMEDTLQAPTPLQIERWLRKQFYSVDRNREDRISAKDLKNMLSQVNYRVPNMRFLRERLTDLEQRSGDITYGQFAQLYRSLMYSAQKTMDLPFLEASTLRAGERPELCRVSLPEFQQFLLDYQGELWAVDRLQVQEFMLSFLRDPLREIEEPYFFLDEFVTFLFSKENSVWNSQLDAVCPDTMNNPLSHYWISSSHNTYLTGDQFSSESSLEAYARCLRMGCRCIELDCWDGPDGMPVIYHGHTLTTKIKFSDVLHTIKEHAFVASEYPVILSIEDHCSIAQQRNMAQYFKKVLGDTLLTKPVEISADGLPSPNQLKRKILIKHKKLAEGSAYEEVPTSMMYSENDISNSIKNGILYLEDPVNHEWYPHYFVLTSSKIYYSEETSSDQGNEDEEEPKEVSSSTELHSNEKWFHGKLGAGRDGRHIAERLLTEYCIETGAPDGSFLVRESETFVGDYTLSFWRNGKVQHCRIHSRQDAGTPKFFLTDNLVFDSLYDLITHYQQVPLRCNEFEMRLSEPVPQTNAHESKEWYHASLTRAQAEHMLMRVPRDGAFLVRKRNEPNSYAISFRAEGKIKHCRVQQEGQTVMLGNSEFDSLVDLISYYEKHPLYRKMKLRYPINEEALEKIGTAEPDYGALYEGRNPGFYVEANPMPTFKCAVKALFDYKAQREDELTFIKSAIIQNVEKQEGGWWRGDYGGKKQLWFPSNYVEEMVNPVALEPEREHLDENSPLGDLLRGVLDVPACQIAIRPEGKNNRLFVFSISMASVAHWSLDVAADSQEELQDWVKKIREVAQTADARLTEGKIMERRKKIALELSELVVYCRPVPFDEEKIGTERACYRDMSSFPETKAEKYVNKAKGKKFLQYNRLQLSRIYPKGQRLDSSNYDPLPMWICGSQLVALNFQTPDKPMQMNQALFMTGRHCGYVLQPSTMRDEAFDPFDKSSLRGLEPCAISIEVLGARHLPKNGRGIVCPFVEIEVAGAEYDSTKQKTEFVVDNGLNPVWPAKPFHFQISNPEFAFLRFVVYEEDMFSDQNFLAQATFPVKGLKTGYRAVPLKNNYSEDLELASLLIKIDIFPAKENGD

Experiments:
SLP-76 (Homo sapiens) = SLP-76 (Homo sapiens) (UniProt Q13094); test: ITC; settings: cited from earlier work
[1] = biological target: SLP-76 157-420 (Homo sapiens) (UniProt Q13094); test: ITC; settings: cited from earlier work
[2] = biological target: LAT 122-140 (Homo sapiens) (UniProt O43561); test: ITC; settings: cited from earlier work
[3] = biological target: SLP-76 159-533 (Homo sapiens) (UniProt Q13094); test: ITC; settings: cited from earlier work
[4] = biological target: LAT 125-178 (Homo sapiens) (UniProt O43561); test: ITC; settings: cited from earlier work
[5] = biological target: LAT 161-180 (Homo sapiens) (UniProt O43561); test: ITC; settings: cited from earlier work
PLC-γ1 (1-1219) = biological target: T1, PLC-γ1 (1-1219) (UniProt P19174 1-1219); test: ITC; PEAQ-ITC, 5 °C, 20 mM Hepes pH 7.4, 100 mM NaCl, 0.1 mM DTT; 4 µM in the cell and 40 µM in the syringe, 19 injections of 2 µL; single binding site model with 1:1 stoichiometry; settings: both partners purified
T1 construct: the text calls it full length PLC-γ1; this is the only PLC-γ1 that the methods describe; also called Phospholipase C-γ1; PLC-g1; source: Sf9, purified (HaloLink Resin, TEV cleavage, SEC)
T1 sequence (looked up): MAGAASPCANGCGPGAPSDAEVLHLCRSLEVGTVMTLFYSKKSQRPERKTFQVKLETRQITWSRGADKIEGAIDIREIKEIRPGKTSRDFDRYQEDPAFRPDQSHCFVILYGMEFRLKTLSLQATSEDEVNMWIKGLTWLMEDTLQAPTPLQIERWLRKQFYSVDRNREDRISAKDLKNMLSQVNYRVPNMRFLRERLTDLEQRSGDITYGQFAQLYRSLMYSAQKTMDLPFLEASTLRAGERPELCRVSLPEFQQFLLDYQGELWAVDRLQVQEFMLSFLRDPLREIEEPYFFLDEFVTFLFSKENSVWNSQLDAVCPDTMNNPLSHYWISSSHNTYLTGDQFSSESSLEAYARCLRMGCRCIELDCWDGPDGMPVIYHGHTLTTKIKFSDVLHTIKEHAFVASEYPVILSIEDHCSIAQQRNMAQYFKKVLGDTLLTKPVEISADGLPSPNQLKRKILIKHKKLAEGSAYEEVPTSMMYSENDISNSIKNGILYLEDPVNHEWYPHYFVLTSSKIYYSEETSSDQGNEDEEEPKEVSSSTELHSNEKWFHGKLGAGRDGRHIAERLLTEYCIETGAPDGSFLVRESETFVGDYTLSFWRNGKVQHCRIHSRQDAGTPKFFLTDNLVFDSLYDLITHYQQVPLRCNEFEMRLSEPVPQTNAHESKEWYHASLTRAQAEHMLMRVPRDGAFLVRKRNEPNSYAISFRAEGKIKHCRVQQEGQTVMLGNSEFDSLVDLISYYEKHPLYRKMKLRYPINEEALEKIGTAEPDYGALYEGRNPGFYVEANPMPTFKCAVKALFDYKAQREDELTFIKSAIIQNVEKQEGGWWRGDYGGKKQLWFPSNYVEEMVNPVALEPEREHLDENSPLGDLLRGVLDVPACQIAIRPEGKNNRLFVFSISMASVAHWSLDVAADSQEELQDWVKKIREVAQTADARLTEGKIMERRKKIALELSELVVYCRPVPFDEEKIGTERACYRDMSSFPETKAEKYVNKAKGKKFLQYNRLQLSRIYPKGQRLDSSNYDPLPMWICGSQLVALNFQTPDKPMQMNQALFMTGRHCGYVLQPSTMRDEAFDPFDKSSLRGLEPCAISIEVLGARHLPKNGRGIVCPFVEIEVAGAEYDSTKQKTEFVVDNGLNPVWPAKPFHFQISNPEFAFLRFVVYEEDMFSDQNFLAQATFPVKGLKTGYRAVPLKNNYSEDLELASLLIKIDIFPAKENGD

[6] = biological target: B4; test: ITC; VP-ITC or PEAQ-ITC; 20 mM Hepes pH 7.4, 100 mM NaCl, 0.1 mM DTT, 5 °C; 4 µM in the cell, 40 µM in the syringe; fit to a single binding site with 1:1 stoichiometry; settings: both partners purified
[7] = biological target: B4; test: cell-based or functional assay
[8] = biological target: T2, phosphorylated LAT (48–233aa, pY132, pY171) (UniProt O43561-2 48-233, phosphotyrosine at 132 and 171 (in vitro phosphorylation, validated by mass spectrometry)); test: cell-based or functional assay
T2 sequence (looked up): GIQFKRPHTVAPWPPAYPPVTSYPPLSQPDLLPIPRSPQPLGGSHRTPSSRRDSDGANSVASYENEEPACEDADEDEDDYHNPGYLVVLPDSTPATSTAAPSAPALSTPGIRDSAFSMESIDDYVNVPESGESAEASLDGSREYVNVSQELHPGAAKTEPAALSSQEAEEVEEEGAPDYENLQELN

Sequence of LAT 125-178 (Homo sapiens) (O43561 125-178): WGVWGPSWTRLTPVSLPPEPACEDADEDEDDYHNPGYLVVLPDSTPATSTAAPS
Sequence of SLP-76 157-420 (Homo sapiens) (Q13094 157-420): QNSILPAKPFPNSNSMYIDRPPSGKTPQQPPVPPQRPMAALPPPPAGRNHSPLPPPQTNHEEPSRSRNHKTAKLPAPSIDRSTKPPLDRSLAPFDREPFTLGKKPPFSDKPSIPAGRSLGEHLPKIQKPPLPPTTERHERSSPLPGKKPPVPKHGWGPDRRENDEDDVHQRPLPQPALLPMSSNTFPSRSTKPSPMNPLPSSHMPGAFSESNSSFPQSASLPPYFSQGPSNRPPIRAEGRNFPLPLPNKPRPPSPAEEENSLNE
Sequence of SLP-76 (Homo sapiens) (Q13094 whole entry): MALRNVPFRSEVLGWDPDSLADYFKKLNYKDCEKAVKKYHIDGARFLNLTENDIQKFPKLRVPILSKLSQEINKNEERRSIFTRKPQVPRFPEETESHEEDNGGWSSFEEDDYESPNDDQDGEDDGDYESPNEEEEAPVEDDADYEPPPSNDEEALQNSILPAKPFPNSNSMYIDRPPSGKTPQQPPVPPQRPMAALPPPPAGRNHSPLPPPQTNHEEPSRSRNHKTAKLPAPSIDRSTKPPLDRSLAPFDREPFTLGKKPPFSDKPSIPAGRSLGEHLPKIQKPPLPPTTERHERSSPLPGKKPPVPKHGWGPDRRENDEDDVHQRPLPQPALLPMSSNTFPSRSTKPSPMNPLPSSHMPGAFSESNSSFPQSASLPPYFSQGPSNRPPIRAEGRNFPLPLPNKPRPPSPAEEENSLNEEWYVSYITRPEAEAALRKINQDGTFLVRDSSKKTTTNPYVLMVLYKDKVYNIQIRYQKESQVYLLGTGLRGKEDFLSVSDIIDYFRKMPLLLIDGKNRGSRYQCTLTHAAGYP
Sequence of SLP-76 159-533 (Homo sapiens) (Q13094 159-533): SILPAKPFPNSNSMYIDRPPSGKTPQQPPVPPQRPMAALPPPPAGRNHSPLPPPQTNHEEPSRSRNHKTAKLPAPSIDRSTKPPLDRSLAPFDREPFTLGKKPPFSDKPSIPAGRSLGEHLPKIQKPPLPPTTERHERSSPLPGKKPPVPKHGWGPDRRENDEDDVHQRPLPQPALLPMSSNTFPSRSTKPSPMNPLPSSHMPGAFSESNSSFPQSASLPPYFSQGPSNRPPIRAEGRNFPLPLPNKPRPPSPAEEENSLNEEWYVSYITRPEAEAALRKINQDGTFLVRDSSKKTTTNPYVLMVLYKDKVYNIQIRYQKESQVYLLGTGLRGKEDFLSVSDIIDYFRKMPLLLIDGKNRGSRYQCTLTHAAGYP

Molecule: PLC-γ1 (from UniProt P19174)
Kd (SLP-76 (Homo sapiens)): 3340 nM

Molecule: PLC-γ1 550-846 (from UniProt P19174)
Kd [1]: 3340 nM
Kd [2]: 62 nM

Molecule: Gads 1-322 (from UniProt O75791)
Kd [1]: 19 nM
Kd [3]: 3.6 nM
Kd [4]: 213 nM
Kd [5]: 164 nM

Molecule: PLC-γ1 1-1219 (from UniProt P19174)
Kd [4]: 84 nM

Kd (PLC-γ1 (1-1219)): 2360 nM
B1: SLP-76 PRR (aa 185-200) peptide, wild type (peptide, UniProt Q13094 185-200, looked up)
peptide: QPPVPPQRPMAALPPP
notes: SLP-76 proline-rich region, residues 185-200; The peptides are called 'a set of short peptides'; also called SLP-76^WT; SLP-76 PRR_(185-200)

Kd [6]: 3990 nM
dH [6]: -3.3 kcal/mol
B2: SLP-76 PRR peptide (aa 185–200), wild type (peptide, UniProt Q13094 185-200, looked up)
peptide: QPPVPPQRPMAALPPP
notes: also called SLP-76 185–200 (WT); SLP-76 PRR_(185–200) peptide

Kd [6]: 2320 nM
dH [6]: -3.8 kcal/mol
PLC-γ1 activity on PIP2-bearing liposomes (IP3): LAT/Gads/SLP-76^WT/PLC-γ1 tetramer against PLC-γ1 with phospho-LAT alone [7]: 1.7 fold
B3: SLP-76^WT polypeptide (aa 103–258, Y113F, Y173F) (domain or fragment, UniProt Q13094 103-258, looked up)
chain: GGWSSFEEDDFESPNDDQDGEDDGDYESPNEEEEAPVEDDADYEPPPSNDEEALQNSILPAKPFPNSNSMFIDRPPSGKTPQQPPVPPQRPMAALPPPPAGRNHSPLPPPQTNHEEPSRSRNHKTAKLPAPSIDRSTKPPLDRSLAPFDREPFTLG
notes: source: E. coli Rosetta 2(DE3)pLysS, purified (Glutathione Resin, TEV cleavage, HisTrap, SEC); not shown: His6, N-terminal, cleaved; GST, N-terminal, cleaved

Molecule: B4
PIP2 hydrolysis (IP3) by PLC-γ1 on liposomes containing phospho-LAT alone, compared with liposomes incubated with PLC-γ1 alone [8]: 2.1 fold

From publication PMC13522589, “Weak SLP-76/PLC-γ1 interaction fine-tunes T cell receptor signal strength to optimize T cell responsiveness” (Nature Communications, 2026)
